Test results as given in patent US20200148732A1 (UNIVERSITY OF COPENHAGEN, published 2020).
Residue numbers refer to the chain shown, from its start.

Experiments:
GFP-TONSL D604A = target: T1, GFP-TONSL D604A (Homo sapiens, UniProt Q96HA7 1-1378); test: GFP immunoprecipitation of GFP-TONSL from transfected HeLa S3 cells, western blot (co-IP; association may be indirect)
T1 construct: also called TONSL D604A / GFP; not shown: N-terminal GFP tag
T1 sequence: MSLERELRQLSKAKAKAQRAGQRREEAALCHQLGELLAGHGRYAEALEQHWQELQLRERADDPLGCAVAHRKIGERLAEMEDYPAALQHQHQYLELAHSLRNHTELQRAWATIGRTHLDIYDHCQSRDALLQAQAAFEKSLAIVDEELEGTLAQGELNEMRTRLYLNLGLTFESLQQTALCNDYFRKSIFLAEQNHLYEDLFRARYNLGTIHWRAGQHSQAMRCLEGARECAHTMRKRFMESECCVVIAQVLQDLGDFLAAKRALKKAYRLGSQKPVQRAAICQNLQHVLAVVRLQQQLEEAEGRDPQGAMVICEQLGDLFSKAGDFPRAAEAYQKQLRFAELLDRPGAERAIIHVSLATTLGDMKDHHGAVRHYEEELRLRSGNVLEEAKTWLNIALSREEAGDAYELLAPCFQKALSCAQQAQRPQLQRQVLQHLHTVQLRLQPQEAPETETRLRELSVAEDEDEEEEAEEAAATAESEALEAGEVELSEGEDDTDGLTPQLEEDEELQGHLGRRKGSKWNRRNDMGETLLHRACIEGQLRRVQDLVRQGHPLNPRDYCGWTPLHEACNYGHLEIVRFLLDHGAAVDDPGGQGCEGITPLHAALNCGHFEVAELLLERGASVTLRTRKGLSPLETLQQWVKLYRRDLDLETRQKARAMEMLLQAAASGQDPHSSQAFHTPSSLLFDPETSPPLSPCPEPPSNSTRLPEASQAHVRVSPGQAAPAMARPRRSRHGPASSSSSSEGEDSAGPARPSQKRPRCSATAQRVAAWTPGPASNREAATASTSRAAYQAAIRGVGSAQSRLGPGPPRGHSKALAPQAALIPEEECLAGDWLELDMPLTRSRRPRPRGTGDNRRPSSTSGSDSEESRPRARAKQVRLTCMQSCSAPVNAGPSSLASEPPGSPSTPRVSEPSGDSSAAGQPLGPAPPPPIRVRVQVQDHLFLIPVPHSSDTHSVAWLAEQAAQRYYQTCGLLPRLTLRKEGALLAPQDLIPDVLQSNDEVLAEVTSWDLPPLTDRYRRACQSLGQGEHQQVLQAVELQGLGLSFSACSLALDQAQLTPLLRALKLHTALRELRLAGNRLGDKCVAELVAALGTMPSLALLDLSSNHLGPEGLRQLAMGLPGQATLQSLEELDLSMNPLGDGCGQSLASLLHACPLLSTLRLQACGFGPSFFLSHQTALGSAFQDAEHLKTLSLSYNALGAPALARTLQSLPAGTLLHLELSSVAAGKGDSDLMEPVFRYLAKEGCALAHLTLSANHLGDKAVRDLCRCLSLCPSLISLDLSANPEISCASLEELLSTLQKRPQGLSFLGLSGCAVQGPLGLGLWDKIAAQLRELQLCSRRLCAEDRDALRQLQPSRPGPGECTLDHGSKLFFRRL

GFP-TONSL D559A = target: T2, GFP-TONSL D559A (Homo sapiens, UniProt Q96HA7 1-1378); test: as above
T2 construct: also called TONSL D559A / GFP; not shown: N-terminal GFP tag
T2 sequence: T1 sequence with D559A, A604D

binding result (GFP-TONSL D604A): binds | binding result (GFP-TONSL D559A): binds
B1: MMS22L (endogenous, in cell extracts) (other, UniProt Q6ZRQ5 1-1243, looked up)
chain: MENCSAASTFLTDSLELELGTEWCKPPYFSCAVDNRGGGKHFSGESYLCSGALKRLILNLDPLPTNFEEDTLEIFGIQWVTETALVNSSRELFHLFRQQLYNLETLLQSSCDFGKVSTLHCKADNIRQQCVLFLHYVKVFIFRYLKVQNAESHVPVHPYEALEAQLPSVLIDELHGLLLYIGHLSELPSVNIGAFVNQNQIKLFPPSWHLLHLHLDIHWLVLEILYMLGEKLKQVVYGHQFMNLASDNLTNISLFEEHCETLLCDLISLSLNRYDKVRSSESLMSDQCPCLCIKELWVLLIHLLDHRSKWFVSESFWNWLNKLLKTLLEKSSDRRRSSMPVIQSRDPLGFSWWIITHVASFYKFDRHGVPDEMRKVESNWNFVEELLKKSISVQGVILEEQLRMYLHCCLTLCDFWEPNIAIVTILWEYYSKNLNSSFSISWLPFKGLANTMKSPLSMLEMVKTCCCDKQDQELYKSSSSYTIFLCILAKVVKKAMKSNGPHPWKQVKGRIYSKFHQKRMEELTEVGLQNFFSLFLLLAAVAEVEDVASHVLDLLNFLKPAFVTSQRALIWKGHMAFLLMYAQKNLDIGVLAEKFSCAFREKAKEFLVSKNEEMVQRQTIWTLLSIYIDGVQEVFETSYCLYPSHEKLLNDGFSMLLRACRESELRTVLSFLQAVLARIRSMHQQLCQELQRDNVDLFVQSSLSAKERHLAAVASALWRHFFSFLKSQRMSQVVPFSQLADAAADFTLLAMDMPSTAPSDFQPQPVISIIQLFGWDDIICPQVVARYLSHVLQNSTLCEALSHSGYVSFQALTVRSWIRCVLQMYIKNLSGPDDLLIDKNLEEAVEKEYMKQLVKLTRLLFNLSEVKSIFSKAQVEYLSISEDPKKALVRFFEAVGVTYGNVQTLSDKSAMVTKSLEYLGEVLKYIKPYLGKKVFSAGLQLTYGMMGILVKSWAQIFATSKAQKLLFRIIDCLLLPHAVLQQEKELPAPMLSAIQKSLPLYLQGMCIVCCQSQNPNAYLNQLLGNVIEQYIGRFLPASPYVSDLGQHPVLLALRNTATIPPISSLKKCIVQVIRKSYLEYKGSSPPPRLASILAFILQLFKETNTDIYEVELLLPGILKCLVLVSEPQVKRLATENLQYMVKACQVGSEEEPSSQLTSVFRQFIQDYGMRYYYQVYSILETVATLDQQVVIHLISTLTQSLKDSEQKWGLGRNIAQREAYSKLLSHLGQMGQDEMQRLENDNT
